Reference: article PMC5709738 (The EMBO Journal, 2017)

Key:
[1] = target: COMA-MIND (K. lactis COMA bound with MIND-C1) (Kluyveromyces lactis) (UniProt Q6CUE5); assay: native MS; nanoflow electrospray of intact assemblies in 200 mM ammonium acetate pH 6.7-7.3 or 7.4; higher micromolar concentrations (COMA ~3 or ~6 uM; COMA-Nkp1-Nkp2 ~3 uM)
[2] = target: COMA (K. lactis, full length: Ame1, Ctf19, Mcm21, Okp1) (Kluyveromyces lactis) (UniProt Q6CUE5); assay: SEC-MALS; COMA injected at ~43 uM (COMA dimer) on Superdex 200 10/300; max. dimeric COMA concentration in the principal peak 2.4 uM
[3] = target: COMA (K. lactis, full length: Ame1, Ctf19, Mcm21, Okp1) (Kluyveromyces lactis) (UniProt Q6CUE5); assay: native MS; nanoflow electrospray of intact assemblies in 200 mM ammonium acetate pH 6.7-7.3 or 7.4; higher micromolar concentrations (COMA ~3 or ~6 uM; COMA-Nkp1-Nkp2 ~3 uM)
[4] = test system: S. cerevisiae clones; assay: dilution-series growth assay on solid YPD agar with benomyl; assay type: cell-based; conditions: 20 μg/ml benomyl
Description: For vegetative growth assays on solid agar, we serially diluted our mitotically cycling S. cerevisiae clone suspensions to an absorbance at 600 nm (A600) of 0.4, in 96‐well plates (Nunc; Thermo Fisher Scientific). From this suspension, we sequentially fourfold diluted suspensions with minimal synthetic complete medium row‐wise (Fig 8A and C; Appendix Fig S9A, B and E). We spotted S. cerevisiae suspensions with a sterilized 48‐head metal pinner (V & P Scientific, Inc.). We prepared our solid YPD agar that contained benomyl with a final concentration of 20 μg/ml benomyl (Sigma‐Aldrich). We did our growth experiments with S. cerevisiae clones that encode Mad1 fused to an auxin‐inducible degron (Appendix Fig S9E) on solid yeast‐extract peptone (YEP) agar with 2% (w/v) raffinose and 2% (w/v) galactose, and 1 mM of the synthetic auxin analogue 1‐napthylic acetic acid (NAA; Carl Roth), similarly as described (Nishimura et al, 2009). To prepare S. cerevisiae extracts for our Western blot that we show an image in Appendix Fig S9F, we grew cultures in YEP with 2% (w/v) raffinose and 2% (w/v) galactose to an A600 of 0.3. After the addition of NAA to a concentration of 1 mM, we collected cells from cultures after specific time points (Appendix Fig S9F) by centrifugation.

[5] = target: T1, full-length Ctf19-Mcm21 (K. lactis) (Kluyveromyces lactis, UniProt Q6CRN7 1-270; Q6CVQ9 1-293); assay: MST
T1 chain 1: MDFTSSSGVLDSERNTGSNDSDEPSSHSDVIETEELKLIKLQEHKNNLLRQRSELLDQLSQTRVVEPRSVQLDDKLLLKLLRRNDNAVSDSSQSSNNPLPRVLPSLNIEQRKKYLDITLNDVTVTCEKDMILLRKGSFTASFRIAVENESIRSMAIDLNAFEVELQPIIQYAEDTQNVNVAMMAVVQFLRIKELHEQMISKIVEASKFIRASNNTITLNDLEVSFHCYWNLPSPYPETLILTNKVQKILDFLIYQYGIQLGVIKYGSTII
T1 chain 2: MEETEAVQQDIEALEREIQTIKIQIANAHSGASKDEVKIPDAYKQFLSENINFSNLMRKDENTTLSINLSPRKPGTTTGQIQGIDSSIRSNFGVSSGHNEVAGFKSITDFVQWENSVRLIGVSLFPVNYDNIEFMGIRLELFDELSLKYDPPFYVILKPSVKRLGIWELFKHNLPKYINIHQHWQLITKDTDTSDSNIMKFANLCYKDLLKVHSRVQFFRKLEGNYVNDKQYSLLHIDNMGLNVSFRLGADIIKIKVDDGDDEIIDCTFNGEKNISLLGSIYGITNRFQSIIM

[6] = target: T2, full-length Ctf19-Mcm21 (K. lactis) (Kluyveromyces lactis, UniProt Q6CRN7 1-270; Q6CVQ9 1-293); assay: MST; Ctf19-Mcm21 labelled with NT-647-NHS on lysines, ~27 nM; dilution series of peptide; 22-25°C; ITC/MST buffer; three dilution series; conditions: both partners purified
T2 construct: Ctf19 of Kluyveromyces lactis; Mcm21 of Kluyveromyces lactis; for microscale thermophoresis it was labelled on lysine side chains with the red dye NT-647-NHS; also stands for the Ctf19-Mcm21 subassembly of COMA in nanoflow mass spectra; source: E. coli BL21 Rosetta 2(DE3)pLysS, co-expressed, purified
T2 sequence (looked up) 1: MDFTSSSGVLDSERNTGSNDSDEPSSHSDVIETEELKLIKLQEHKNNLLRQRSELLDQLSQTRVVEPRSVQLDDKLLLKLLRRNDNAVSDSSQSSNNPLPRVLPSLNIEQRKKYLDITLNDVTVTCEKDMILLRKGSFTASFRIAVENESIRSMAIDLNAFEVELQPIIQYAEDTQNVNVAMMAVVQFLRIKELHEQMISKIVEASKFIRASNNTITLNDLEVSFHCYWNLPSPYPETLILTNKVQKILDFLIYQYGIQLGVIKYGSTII
T2 sequence (looked up) 2: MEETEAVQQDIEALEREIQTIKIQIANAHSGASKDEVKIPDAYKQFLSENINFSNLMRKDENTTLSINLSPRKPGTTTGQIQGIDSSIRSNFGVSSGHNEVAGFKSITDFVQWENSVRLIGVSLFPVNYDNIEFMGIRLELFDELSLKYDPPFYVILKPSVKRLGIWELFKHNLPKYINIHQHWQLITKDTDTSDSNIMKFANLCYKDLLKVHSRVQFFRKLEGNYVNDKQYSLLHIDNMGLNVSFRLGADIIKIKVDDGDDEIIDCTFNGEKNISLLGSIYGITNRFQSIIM

Work on “COMA-MIND (K. lactis COMA bound with MIND-C1) (from UniProt Q6CUE5 1-292; Q6CRN7 1-270; Q6CVQ9 1-293; Q6CJY0 1-383) (complex)” yielded a stoichiometry N [1] of 2.

In the case of “COMA (K. lactis, full length: Ame1, Ctf19, Mcm21, Okp1) (from UniProt Q6CUE5 1-292; Q6CRN7 1-270; Q6CVQ9 1-293; Q6CJY0 1-383) (complex)”, the stoichiometry N [2] is reported as 2 and the stoichiometry N [3] is reported as 2.

With `CCCCNC(=O)n1c(NC(=O)OC)nc2ccccc21` [benomyl] the “benomyl sensitivity (growth)” value ([4]; Okp1_cmΔ and Okp1_cmΔnnΔ mutants, solid YPD agar, elevated temperature) was “sensitive to benomyl” and the “growth in the presence of benomyl” value ([4]; Okp1_cmΔ cnn1Δ mutant compared with Okp1_cmΔ or cnn1Δ, 37°C) was “reduced growth”.

B1: Okp1 peptide variant N330A (peptide, UniProt Q6CJY0 318-337, looked up)
peptide: SNEIYQQDKIDFALKLKTDF
notes: source: synthetic peptide (Protein Chemistry core facility, IMP, Vienna)
B1 was tested, and the Kd [5] was 5.51 µM and the binding result [6] was “binds”.
